According to paper PMC11202772:

Target: eel luteotropin/chorionic gonadotropin hormone receptor (eel LH/CGR) (eel)

Substance | EC50 of cAMP production (HTRF) in CHO-K1 cells transiently expressing eel LH/CGR; ligand 0-1500 ng/mL, 30 min, room temperature [µg/mL]
tethered eel LH mutant (tethered rec-eel LH-M) with the eLH/CG β-subunit CTP linker between the β-subunit and the α-subunit (from UniProt P08751 135-169) (ligand) | 0.0478
wild-type tethered eel luteinizing hormone (tethered rec-eel LH-wt) (ligand) | 0.139
